Source: PMC9996972

Biological target: αVβ3 integrin (rat (endogenous in primary astrocytes)) (UniProt Q8R2H2)
Sequence of UniProt Q8R2H2 (Q8R2H2 whole entry, looked up): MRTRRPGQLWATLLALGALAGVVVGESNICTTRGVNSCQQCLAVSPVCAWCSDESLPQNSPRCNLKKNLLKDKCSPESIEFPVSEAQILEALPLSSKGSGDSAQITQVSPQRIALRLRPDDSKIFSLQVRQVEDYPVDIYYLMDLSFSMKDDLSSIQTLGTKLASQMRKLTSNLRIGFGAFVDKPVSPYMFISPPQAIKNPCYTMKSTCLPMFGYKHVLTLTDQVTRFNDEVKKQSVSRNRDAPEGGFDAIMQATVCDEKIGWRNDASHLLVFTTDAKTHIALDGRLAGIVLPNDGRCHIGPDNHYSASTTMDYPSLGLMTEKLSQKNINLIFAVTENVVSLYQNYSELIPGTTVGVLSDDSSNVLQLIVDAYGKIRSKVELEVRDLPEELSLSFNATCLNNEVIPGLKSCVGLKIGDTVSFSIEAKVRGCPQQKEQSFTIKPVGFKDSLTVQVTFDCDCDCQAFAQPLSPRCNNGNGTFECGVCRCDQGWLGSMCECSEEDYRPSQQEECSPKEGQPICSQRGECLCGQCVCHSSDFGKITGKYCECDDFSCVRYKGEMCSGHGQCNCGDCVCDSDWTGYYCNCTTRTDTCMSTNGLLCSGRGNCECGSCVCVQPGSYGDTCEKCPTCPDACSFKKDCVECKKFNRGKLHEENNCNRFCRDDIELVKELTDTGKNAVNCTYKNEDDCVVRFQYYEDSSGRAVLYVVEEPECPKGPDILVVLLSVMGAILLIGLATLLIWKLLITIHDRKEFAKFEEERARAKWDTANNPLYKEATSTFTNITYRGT

B1: Thy-1-Fc fusion protein (Fc fusion)
chain: QKVTSLTACLVNQNLRLDCRHENNTKDNSIQHEFSLTREKRKHVLSGTLGIPEHTYRSRVTLSNQPYIKVLTLANFTTKDEGDYFCELQVSGANPMSSNKSISVYRDKLVKC
- wound closure (migration) of primary astrocytes pretreated with Hp OMVs (2.5 µg/ml, 12 h), then stimulated with Thy-1-Fc/Protein-A for 24 h: 25%
- wound closure (migration) of primary astrocytes pretreated with TNF (10 ng/ml, 48 h), then stimulated with Thy-1-Fc/Protein-A for 24 h: 10%
